In article PMC4467794:

Target: Mcx1-3xFLAG, wildtype, purified recombinant (S. cerevisiae) (UniProt P38323)
Assay: co-IP

Mcx1-3xFLAG, wildtype, purified recombinant (S. cerevisiae), sequence (P38323 14-520): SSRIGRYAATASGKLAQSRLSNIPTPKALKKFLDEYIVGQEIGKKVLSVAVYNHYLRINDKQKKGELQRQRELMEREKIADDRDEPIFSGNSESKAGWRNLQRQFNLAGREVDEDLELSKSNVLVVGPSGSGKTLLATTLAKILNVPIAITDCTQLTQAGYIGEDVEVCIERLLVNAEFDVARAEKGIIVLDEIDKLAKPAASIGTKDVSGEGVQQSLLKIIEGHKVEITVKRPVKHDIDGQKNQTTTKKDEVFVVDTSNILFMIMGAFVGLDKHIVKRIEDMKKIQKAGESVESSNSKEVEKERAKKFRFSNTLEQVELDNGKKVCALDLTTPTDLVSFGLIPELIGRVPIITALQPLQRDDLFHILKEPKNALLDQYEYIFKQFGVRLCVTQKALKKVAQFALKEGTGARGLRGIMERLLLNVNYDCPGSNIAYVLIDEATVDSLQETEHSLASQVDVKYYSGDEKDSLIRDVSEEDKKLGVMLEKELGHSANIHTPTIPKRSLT

fold amount bound relative to holoHem1: 10 fold
Substance: apoHem1 (PLP-free Hem1, yeast ALA synthase), purified recombinant (from UniProt P09950 23-548) (enzyme)
